One assay addresses T1, human CD47 on cells (human, UniProt Q08722 19-323).
T1 construct: whole, on cells; Endogenous CD47 of the cells; also called CD47 on Daudi cells; CD47 on RBCs
As to the kind of experiment: flow cytometry on human red blood cells. In general terms: A flow cytometer gives signals particle by particle.

Assay [1] concerns the target T2, human CD38 on tumor cells (human, UniProt P28907 1-300).
T2 construct: whole, on cells; Endogenous CD38 of the cell lines; also called CD38 on Raji-CD47KO cells
As to the kind of experiment: flow cytometry on Raji-CD47KO cells.

B1: BEAT CD38/CD47-60 (bispecific antibody, human IgG1, kappa)
heavy 1: EVQLVESGGGLIQPGGSLRLSCAASGFTLSRNTMHWVRQAPGKGLEWVSVIYQSGVTRYADSVKSRFTISRDNSKNTLYLQMNSLRAEDTAVYYCARGRYGVAGGPGYAFDVWGQGTLVTVSSASTKGPSVFPLAPSSKSTSGGTAALGCLVKDYFPEPVTVSWNSGALTSGVHTFPAVLQSSGLYSLSSVVTVPSSSLGTQTYICNVNHKPSNTKVDKKVEPKSCDKTHTCPPCPAPELLGGPDVFLFPPKPKDTLMISRTPEVTCVVVDVSHEDPEVKFNWYVDGVEVHNAKTKPREEQYNSTYRVVSVLTVLHQDWLNGKEYKCKVNNKALPAPEEKTISKAKGQPREPAVYTLPPSREEMTKNQVKLVCLVTGFYPSDIAVEWESSGQPENNYYTTPPMLDSDGSFSLVSWLNVDKSRWQQGNIFSCSVMHEALHNRFTQKSLSLSPG
heavy 2: not shown
light: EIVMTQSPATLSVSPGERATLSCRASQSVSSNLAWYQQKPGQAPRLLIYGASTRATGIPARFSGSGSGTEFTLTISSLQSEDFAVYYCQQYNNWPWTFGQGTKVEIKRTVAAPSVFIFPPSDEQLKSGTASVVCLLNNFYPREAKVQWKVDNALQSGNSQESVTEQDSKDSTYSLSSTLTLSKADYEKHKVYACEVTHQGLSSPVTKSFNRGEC
notes: 2+1 biparatopic BEAT: anti-CD47-H2 arm on BEAT (A); BEAT (B) carries Fc distal anti-CD38-B6-D9 and Fc proximal anti-CD38-E2-RecA Fabs; BEAT (A): S239D + I332E + S324N, BEAT (B): S324N; also called BEAT CD38/47-60; BEAT 38/47-60
With B1, the binding result (in the assay with human CD47 on cells; in assay [1]) was “binds” throughout.

The record behind these values is US20240141062A1 (published 2024).
